The chains are these.
B1: glmS ribozyme (parent)
chain: AUAAAAGCGCCAGAACUACAGAAAUGUAGUUGACGAGGAGGAGGUUUAUCGAAUUUUCGGCGGAUGCCUCCAAA

± gives the standard error. For some assays here: Variants at the floor of the assay were thinned out. Some results are limits rather than exact numbers.

What all share (conditions): with glucosamine-6-phosphate
In data set [1] the parent is B1. The data set can be described thus: self-cleavage kobs at 40 uM GlcN6P; higher = faster cleavage; RNA array. In short, it runs like this:
(§1)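 Tiles of sequenced MiSeq chips were imaged over ~14 h at 37 °C. On them, barcoded ribozyme variants had been transcribed in situ by E. coli RNA polymerase and were tracked via a hybridised Cy3 probe while glucosamine-6-phosphate (40 μM to 10 mM) in HEPES/KCl/Mg(OAc)2 buffer flowed in. Per-tile medians, normalised to baseline and to non-cleaving reference variants, were fit to one- or two-exponential decays for kobs, and weighted Michaelis–Menten fits gave kcat and KM.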

In data set [2] the parent is B1. As to the kind of experiment: self-cleavage kobs at 640 uM GlcN6P; higher = faster cleavage; RNA array. The procedure, abridged:
as §1

Variants of B1 are the subject of data set [3]. The data set can be described thus: kcat; higher = faster cleavage; RNA array. In short, it runs like this:
as §1

Data set [4] covers variants of B1. The data set can be described thus: KM; higher = weaker cofactor use; RNA array. The procedure, abridged: as §1
Data set [5] covers variants of B1. As to the kind of experiment: self-cleavage kobs at 2500 uM GlcN6P; higher = faster cleavage; RNA array. The procedure, abridged:
as §1

In data set [6] the parent is B1. As to the kind of experiment: self-cleavage kobs at 10000 uM GlcN6P; higher = faster cleavage; RNA array. In short, it runs like this:
as §1

The variants in data set [7] derive from B1. The data set can be described thus: self-cleavage kobs at 160 uM GlcN6P; higher = faster cleavage; RNA array. In short, it runs like this: as §1

Regarding C11U G32C A36G G62A C71G, the “self-cleavage kobs at 40 uM GlcN6P” value in data set [1] was less than 1e-05 s⁻¹. In addition, the “self-cleavage kobs at 640 uM GlcN6P” value in data set [2] was less than 1e-05 s⁻¹.

As to U65C C68U, the kcat in data set [3] came to 2.26e-05 ± 1.2e-06 s⁻¹. The KM in data set [4] turned out to be 558 ± 230 µM.

With A39U A42U U55G G66U, the kcat in data set [3] was determined as 0.000223 ± 7.5e-06 s⁻¹. The KM in data set [4] amounted to 1100 ± 96 µM. Also, the “self-cleavage kobs at 640 uM GlcN6P” value in data set [2] was 8.2e-05 ± 2.5e-05 s⁻¹. Moreover, the “self-cleavage kobs at 2500 uM GlcN6P” value in data set [5] stood at 0.000166 ± 5.4e-05 s⁻¹. In addition, the “self-cleavage kobs at 10000 uM GlcN6P” value in data set [6] is 0.000198 ± 3.5e-05 s⁻¹.

As to A52C U65G, the KM in data set [4] was 197 ± 67 µM.

U31C G32A C58A U65G: in data set [3], the kcat was found to be 4.59e-05 ± 1e-06 s⁻¹. Further, the KM in data set [4] came out at 2320 ± 190 µM. Also, in data set [6], the “self-cleavage kobs at 10000 uM GlcN6P” value worked out at 3.72e-05 ± 1.4e-05 s⁻¹.

A15G G29C U31C A39U: in data set [3], the catalytic constant (kcat) is 0.000143 ± 2.1e-06 s⁻¹. The KM in data set [4] is 4650 ± 160 µM. Also, the “self-cleavage kobs at 2500 uM GlcN6P” value in data set [5] worked out at 5.02e-05 ± 1.3e-05 s⁻¹. Moreover, the “self-cleavage kobs at 10000 uM GlcN6P” value in data set [6] came out at 9.79e-05 ± 1.4e-05 s⁻¹.

Regarding A15G U46C, in data set [3], the kcat was 0.00378 ± 0.0014 s⁻¹. Besides, the Michaelis constant (KM) in data set [4] was 1440 ± 680 µM. Besides, the “self-cleavage kobs at 40 uM GlcN6P” value in data set [1] is 0.000112 ± 2.9e-05 s⁻¹. Moreover, the “self-cleavage kobs at 160 uM GlcN6P” value in data set [7] was determined as 0.000465 ± 0.00016 s⁻¹. The “self-cleavage kobs at 640 uM GlcN6P” value in data set [2] is 0.000897 ± 0.00029 s⁻¹. Also, in data set [6], the “self-cleavage kobs at 10000 uM GlcN6P” value was found to be 0.00388 ± 0.0013 s⁻¹.

For G29A A64U, in data set [4], the KM is 593 ± 20 µM.

On to C11G C50G, for which the kcat in data set [3] was 0.000265 ± 6.8e-05 s⁻¹. In data set [1], the “self-cleavage kobs at 40 uM GlcN6P” value was 6.35e-05 ± 1.4e-05 s⁻¹. Moreover, the “self-cleavage kobs at 160 uM GlcN6P” value in data set [7] was 0.00024 ± 4.8e-05 s⁻¹. Moreover, the “self-cleavage kobs at 640 uM GlcN6P” value in data set [2] was determined as 0.000352 ± 7.5e-05 s⁻¹. The “self-cleavage kobs at 2500 uM GlcN6P” value in data set [5] is 0.000209 ± 5e-05 s⁻¹. In addition, in data set [6], the “self-cleavage kobs at 10000 uM GlcN6P” value is 0.000187 ± 9.3e-05 s⁻¹.

In the case of G7U U30G, in data set [1], the “self-cleavage kobs at 40 uM GlcN6P” value is less than 1e-05 s⁻¹. Further, in data set [7], the “self-cleavage kobs at 160 uM GlcN6P” value is less than 1e-05 s⁻¹. For the same variant, in data set [6], the “self-cleavage kobs at 10000 uM GlcN6P” value is less than 1e-05 s⁻¹.

As to A6U A15U, in data set [3], the kcat amounted to 3.81e-05 ± 2.5e-06 s⁻¹. In addition, the KM in data set [4] was found to be 1260 ± 360 µM. Besides, the “self-cleavage kobs at 2500 uM GlcN6P” value in data set [5] was 2.31e-05 ± 8.8e-06 s⁻¹. The “self-cleavage kobs at 10000 uM GlcN6P” value in data set [6] worked out at 3.44e-05 ± 7e-06 s⁻¹.

As for C16A C70A, the kcat in data set [3] amounted to 3.47e-05 ± 1.4e-05 s⁻¹. The “self-cleavage kobs at 640 uM GlcN6P” value in data set [2] is 3.14e-05 ± 1.6e-05 s⁻¹. Further, in data set [5], the “self-cleavage kobs at 2500 uM GlcN6P” value stood at 6.59e-05 ± 2.4e-05 s⁻¹.

For A33U U54A, the kcat in data set [3] came to 0.000116 ± 2e-05 s⁻¹. Moreover, the “self-cleavage kobs at 640 uM GlcN6P” value in data set [2] is 6.35e-05 ± 1.7e-05 s⁻¹. Besides, in data set [5], the “self-cleavage kobs at 2500 uM GlcN6P” value stood at 7.03e-05 ± 1.2e-05 s⁻¹. The “self-cleavage kobs at 10000 uM GlcN6P” value in data set [6] stood at 0.000117 ± 1.6e-05 s⁻¹.

For A36C U65C, the “self-cleavage kobs at 40 uM GlcN6P” value in data set [1] is less than 1e-05 s⁻¹. Also, in data set [7], the “self-cleavage kobs at 160 uM GlcN6P” value is less than 1e-05 s⁻¹. Moreover, the “self-cleavage kobs at 2500 uM GlcN6P” value in data set [5] was less than 1e-05 s⁻¹. The “self-cleavage kobs at 10000 uM GlcN6P” value in data set [6] was less than 1e-05 s⁻¹.

Turning to C10G U31C, the “self-cleavage kobs at 40 uM GlcN6P” value in data set [1] is less than 1e-05 s⁻¹. The “self-cleavage kobs at 160 uM GlcN6P” value in data set [7] is less than 1e-05 s⁻¹. In addition, the “self-cleavage kobs at 10000 uM GlcN6P” value in data set [6] was less than 1e-05 s⁻¹.

As for A12U G37C, in data set [3], the kcat was 0.000148 ± 1.2e-05 s⁻¹. Moreover, the KM in data set [4] worked out at 4210 ± 790 µM. In data set [7], the “self-cleavage kobs at 160 uM GlcN6P” value is less than 1e-05 s⁻¹. Besides, the “self-cleavage kobs at 2500 uM GlcN6P” value in data set [5] was 5.79e-05 ± 8.6e-06 s⁻¹. Moreover, the “self-cleavage kobs at 10000 uM GlcN6P” value in data set [6] is 0.000104 ± 9.8e-06 s⁻¹.

Take U46G C67G C68G: the “self-cleavage kobs at 40 uM GlcN6P” value in data set [1] amounted to 2.82e-05 ± 1.4e-05 s⁻¹. Also, the “self-cleavage kobs at 2500 uM GlcN6P” value in data set [5] was 7.29e-05 ± 2.5e-05 s⁻¹.

For A36U A48U, the “self-cleavage kobs at 40 uM GlcN6P” value in data set [1] is less than 1e-05 s⁻¹. The “self-cleavage kobs at 160 uM GlcN6P” value in data set [7] is less than 1e-05 s⁻¹. The “self-cleavage kobs at 2500 uM GlcN6P” value in data set [5] is less than 1e-05 s⁻¹. Moreover, in data set [6], the “self-cleavage kobs at 10000 uM GlcN6P” value was less than 1e-05 s⁻¹.

For the variant U54G G60A, the kcat in data set [3] was 2.28e-05 ± 5.4e-06 s⁻¹. Besides, the “self-cleavage kobs at 160 uM GlcN6P” value in data set [7] is less than 1e-05 s⁻¹.

On to U54G U65G, for which the kcat in data set [3] turned out to be 0.00368 ± 0.00099 s⁻¹. The KM in data set [4] worked out at 3430 ± 1300 µM. Besides, the “self-cleavage kobs at 40 uM GlcN6P” value in data set [1] was determined as 5.92e-05 ± 6.8e-06 s⁻¹. Further, in data set [7], the “self-cleavage kobs at 160 uM GlcN6P” value came out at 0.00012 ± 2.1e-05 s⁻¹. Also, the “self-cleavage kobs at 640 uM GlcN6P” value in data set [2] was determined as 0.000629 ± 9e-05 s⁻¹. Moreover, the “self-cleavage kobs at 2500 uM GlcN6P” value in data set [5] was determined as 0.00144 ± 0.00021 s⁻¹. The “self-cleavage kobs at 10000 uM GlcN6P” value in data set [6] came out at 0.00282 ± 0.00029 s⁻¹.

In general, kcat refers to the number of substrate molecules converted per active site and unit of time at saturation. The term KM denotes the concentration of substrate that gives half-maximal velocity.

For the origin of these results see the supplement of paper PMC7125110.
